Results: the Human Domainome abundance scans (Beltran et al. 2025)
± gives the uncertainty stated by the source.

B1: MEF2-activating motif and SAP domain-containing transcriptional regulator, residues 170 to 204; numbered along this chain, Q6ZN01 (parent)
chain: LKLEELTVSELRQQLRLRGLPVSGTKSMLLERMRG

Variants of: B1
Test: abundance fitness (aPCA) (normalised: wild type 0, dead -1); higher = more abundant; growth selection in yeast, the domain comes from the species named
Conditions: Homo sapiens

Variant	abundance fitness
L11E	-0.864 ± 0.13
L11R	-0.565 ± 0.097
L11K	-0.623 ± 0.13
L11Q	-0.568 ± 0.1
L11F	-1.08 ± 0.34
L11V	-0.59 ± 0.074
L11S	-0.542 ± 0.07
L11Y	-0.497 ± 0.091
L11G	-0.657 ± 0.063
L11M	-0.331 ± 0.32
L11P	-0.64 ± 0.12
L11I	-0.206 ± 0.11
L11H	-0.811 ± 0.16
L11A	-0.678 ± 0.11
L11C	-1.03 ± 0.095
L11W	-0.897 ± 0.11
Q13K	0.015 ± 0.079
Q13V	-0.11 ± 0.067
Q13W	-0.28 ± 0.072
Q13I	-0.036 ± 0.099
Q13R	-0.23 ± 0.095
Q13C	-0.163 ± 0.1
Q13F	-0.101 ± 0.21
Q13E	-0.1 ± 0.1

Variant	abundance fitness
Q13D	-0.075 ± 0.09
Q13G	-0.251 ± 0.061
Q13L	-0.174 ± 0.061
Q13M	-0.134 ± 0.097
Q13S	-0.203 ± 0.074
Q13A	-0.285 ± 0.11
Q13H	0.054 ± 0.16
S9L	-0.275 ± 0.1
S9R	-0.09 ± 0.05
S9W	-0.142 ± 0.06
S9N	0.182 ± 0.19
S9M	0.122 ± 0.1
S9G	-0.111 ± 0.057
S9E	0.181 ± 0.074
S9P	-0.291 ± 0.2
S9K	0.084 ± 0.12
S9Y	-0.345 ± 0.082
S9V	-0.121 ± 0.056
S9D	0.173 ± 0.074
S9C	-0.347 ± 0.13
S9A	0.016 ± 0.054
S9Q	0.164 ± 0.069
V8W	-0.03 ± 0.18
V8Q	-0.648 ± 0.074

Variant	abundance fitness
V8M	-0.206 ± 0.17
V8K	-0.066 ± 0.11
V8Y	-0.576 ± 0.15
V8P	-0.39 ± 0.091
V8L	-0.099 ± 0.055
V8R	-0.309 ± 0.063
V8N	-0.387 ± 0.14
V8S	-0.28 ± 0.068
R12T	-0.199 ± 0.11
R12V	-0.304 ± 0.1
R12L	-0.523 ± 0.074
R12G	-0.593 ± 0.076
R12N	-0.961 ± 0.49
R12M	-0.32 ± 0.13
R12A	-0.361 ± 0.11
R12Q	-0.016 ± 0.097
R12C	-0.387 ± 0.086
R12Y	-0.495 ± 0.21
R12S	-0.29 ± 0.087
R12K	-0.072 ± 0.09
R12D	-0.488 ± 0.11
R12P	-0.602 ± 0.096
L15A	0.11 ± 0.068
L15R	-0.712 ± 0.063

Variant	abundance fitness
L15D	-0.599 ± 0.14
L15Y	-0.661 ± 0.078
L15C	0.149 ± 0.065
L15E	-0.38 ± 0.099
L15S	-0.215 ± 0.091
L15N	-0.308 ± 0.14
L15P	-0.6 ± 0.12
L15K	-0.361 ± 0.099
L15M	-0.185 ± 0.16
L15V	-0.37 ± 0.073
L15Q	-0.339 ± 0.096
L15T	-0.43 ± 0.089
L15G	-0.391 ± 0.058
L15W	-1 ± 0.16
R16Y	-0.613 ± 0.12
R16M	-0.07 ± 0.062
R16Q	-0.207 ± 0.18
R16S	-0.095 ± 0.066
R16F	-0.086 ± 0.26
R16K	0.284 ± 0.14
R16W	-0.129 ± 0.058
R16C	-0.107 ± 0.08
R16L	-0.027 ± 0.067
R16E	0.001 ± 0.078

Variant	abundance fitness
R16D	-0.331 ± 0.09
R16A	0.04 ± 0.062
R16G	-0.081 ± 0.054
R16P	-0.96 ± 0.13
G19S	-0.34 ± 0.065
G19H	-0.211 ± 0.16
G19Q	-0.402 ± 0.1
G19A	-0.746 ± 0.08
G19C	-0.559 ± 0.092
G19K	-0.227 ± 0.086
G19I	-0.417 ± 0.19
G19F	-0.639 ± 0.14
G19R	-0.337 ± 0.066
G19V	-1.02 ± 0.1
G19W	-0.863 ± 0.092
G19T	-0.683 ± 0.11
G19E	-0.261 ± 0.072
G19P	-0.558 ± 0.29
Q14M	0.023 ± 0.063
Q14P	-0.863 ± 0.097
Q14G	-0.35 ± 0.063
Q14W	-0.141 ± 0.084
Q14R	-0.174 ± 0.053
Q14D	-0.551 ± 0.07

Variant	abundance fitness
Q14H	-0.192 ± 0.095
Q14A	0.135 ± 0.084
Q14Y	-0.326 ± 0.25
Q14T	-0.45 ± 0.16
Q14K	-0.175 ± 0.35
Q14V	-0.222 ± 0.061
Q14N	-0.441 ± 0.14
Q14F	-0.401 ± 0.13
Q14C	-0.313 ± 0.11
E10T	-0.782 ± 0.17
E10W	-0.728 ± 0.11
E10R	-0.552 ± 0.072
E10C	-0.678 ± 0.085
E10F	-0.895 ± 0.39
E10Q	-0.216 ± 0.14
E10G	-0.509 ± 0.12
E10A	-0.425 ± 0.1
E10M	-0.608 ± 0.11
E10I	-0.781 ± 0.5
E10S	-0.454 ± 0.072
E10K	-0.354 ± 0.14
E10D	-0.402 ± 0.15
L17T	-0.081 ± 0.11
L17F	-0.271 ± 0.15

Variant	abundance fitness
L17P	-0.988 ± 0.15
L17M	-0.087 ± 0.062
L17R	-0.155 ± 0.056
L17G	-0.238 ± 0.069
L17V	-0.054 ± 0.14
L17E	-0.089 ± 0.066
L17S	-0.249 ± 0.089
L17W	-0.307 ± 0.089
L17C	-0.102 ± 0.16
L17Q	-0.032 ± 0.093
R18P	-0.336 ± 0.39
R18E	-0.14 ± 0.052
R18N	-0.299 ± 0.32
R18K	-0.119 ± 0.068
R18S	-0.206 ± 0.24
R18M	0.126 ± 0.071
R18A	-0.009 ± 0.085
R18L	0.074 ± 0.057
R18G	-0.523 ± 0.097
R18W	-0.147 ± 0.085
R18Q	0.03 ± 0.24
R18V	-0.128 ± 0.095
R18T	-0.239 ± 0.12
